From US20250051474A1, “ANTI-CD97 ANTIBODIES AND ANTIBODY-DRUG CONJUGATES” (New York University, priority 2023, published 2025)
Numbering of substitutions follows the chain as printed.

How the values were obtained:
[1] = molecular target: T1, CD97 GAIN mutant T524K expressed on ExpiCHO cells (human, UniProt P48960 21-835); assay: cell-based binding assay: CD97 GAIN mutant T524K transiently expressed on ExpiCHO cells, A8 Fab titrated, flow cytometry MFI; lower panel
T1 construct: numbering of isoform 1; whole entry named
T1 sequence: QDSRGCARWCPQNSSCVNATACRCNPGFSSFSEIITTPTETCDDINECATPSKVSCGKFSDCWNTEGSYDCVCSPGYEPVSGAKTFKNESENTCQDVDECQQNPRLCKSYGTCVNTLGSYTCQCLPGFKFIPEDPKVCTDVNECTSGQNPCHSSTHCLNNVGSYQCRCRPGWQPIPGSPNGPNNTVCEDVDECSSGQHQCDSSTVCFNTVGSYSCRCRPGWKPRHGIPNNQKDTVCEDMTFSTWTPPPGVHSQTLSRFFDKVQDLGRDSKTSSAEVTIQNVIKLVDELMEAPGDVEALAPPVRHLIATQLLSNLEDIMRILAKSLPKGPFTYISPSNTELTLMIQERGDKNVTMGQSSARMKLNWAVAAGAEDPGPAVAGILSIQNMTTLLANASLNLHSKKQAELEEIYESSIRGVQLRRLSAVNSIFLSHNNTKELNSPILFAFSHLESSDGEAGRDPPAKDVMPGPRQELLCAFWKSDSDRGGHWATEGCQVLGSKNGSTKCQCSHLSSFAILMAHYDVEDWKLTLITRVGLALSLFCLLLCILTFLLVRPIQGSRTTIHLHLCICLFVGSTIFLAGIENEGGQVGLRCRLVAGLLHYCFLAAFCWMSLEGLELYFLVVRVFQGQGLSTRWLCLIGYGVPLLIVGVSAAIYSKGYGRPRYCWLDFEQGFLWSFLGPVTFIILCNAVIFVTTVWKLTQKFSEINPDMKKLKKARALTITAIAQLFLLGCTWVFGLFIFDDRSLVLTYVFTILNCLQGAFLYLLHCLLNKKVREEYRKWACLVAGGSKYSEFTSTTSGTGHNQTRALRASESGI
Method: (§1) KD values were determined from the curve fitting of a 1:1 binding model.

[2] = molecular target: T2, CD97 (reference without GAIN mutation) expressed on ExpiCHO cells in the mutational study (human, UniProt P48960 21-835); assay: cell-based binding assay: CD97 transiently expressed on ExpiCHO cells, A8 Fab titrated, flow cytometry MFI, 1:1 fit; the same WT curve and value stand in the upper and the lower panel
T2 construct: the whole entry for isoform 1 is named here; also called CD97 GAIN domain
T2 sequence: T1 sequence with K504T
Method: as §1

[3] = molecular target: T3, CD97 (ADGRE5) isoform 2 ectodomain, purified and biotinylated (human, UniProt P48960 21-552, biotinylated in vitro using the BirA enzyme); assay: bead-based binding titration (biotinylated antigen on streptavidin beads, flow cytometry), 1:1 fit
T3 construct: the whole entry for isoform 2 is named here; also called CD97 isoform 2
T3 sequence: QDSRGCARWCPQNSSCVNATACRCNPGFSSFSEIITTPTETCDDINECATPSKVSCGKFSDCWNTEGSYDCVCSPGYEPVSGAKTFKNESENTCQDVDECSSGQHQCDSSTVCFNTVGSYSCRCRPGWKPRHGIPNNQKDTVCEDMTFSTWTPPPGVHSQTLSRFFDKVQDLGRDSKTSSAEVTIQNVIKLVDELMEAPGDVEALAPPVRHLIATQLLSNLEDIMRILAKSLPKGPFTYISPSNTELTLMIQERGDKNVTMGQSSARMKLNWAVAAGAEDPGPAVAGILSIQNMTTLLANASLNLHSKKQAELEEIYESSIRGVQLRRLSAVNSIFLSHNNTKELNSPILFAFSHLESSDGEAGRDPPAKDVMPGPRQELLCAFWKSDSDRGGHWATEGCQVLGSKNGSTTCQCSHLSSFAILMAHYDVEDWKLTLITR

[4] = molecular target: T4, CD97 (ADGRE5) isoform 1 ectodomain, purified and biotinylated (human, UniProt P48960 21-552, limits assumed, biotinylated in vitro using the BirA enzyme); assay: as above
T4 construct: the whole entry for isoform 1 is named here; also called CD97 isoform 1; Biotinylated CD97 isoform 1
T4 sequence: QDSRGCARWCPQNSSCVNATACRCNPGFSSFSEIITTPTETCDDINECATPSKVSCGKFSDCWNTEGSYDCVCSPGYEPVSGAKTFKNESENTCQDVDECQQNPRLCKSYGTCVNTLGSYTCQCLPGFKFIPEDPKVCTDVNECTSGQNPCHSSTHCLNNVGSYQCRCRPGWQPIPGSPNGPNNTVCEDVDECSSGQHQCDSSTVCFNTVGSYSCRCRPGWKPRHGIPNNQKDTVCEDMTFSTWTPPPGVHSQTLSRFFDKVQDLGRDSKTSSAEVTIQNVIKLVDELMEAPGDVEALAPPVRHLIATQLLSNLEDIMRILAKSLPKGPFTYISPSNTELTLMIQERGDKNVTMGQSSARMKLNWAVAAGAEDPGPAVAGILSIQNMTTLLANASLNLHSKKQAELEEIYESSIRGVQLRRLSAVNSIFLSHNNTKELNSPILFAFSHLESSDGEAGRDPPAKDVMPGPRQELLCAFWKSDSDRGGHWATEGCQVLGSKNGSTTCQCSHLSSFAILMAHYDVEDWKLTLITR

binding result [1]: no binding (tested: 1000 nM) | Kd [2]: 45 nM | Kd [3]: 2.2 nM | Kd [4]: 2.4 nM
B1: Antibody clone A8, Fab format (Fab, V domains shown)
VH: EVQLVESGGGLVQPGGSLRLSCAASGFTISSYSIHWVRQAPGKGLEWVASISPYYGSTSYADSVKGRFTISADTSKNTAYLQMNSLRAEDTAVYYCARSWYYYEQNPYWYQKEEQALDYWGQGTLVTVSS
VL: DIQMTQSPSSLSASVGDRVTITCRASQSVSSAVAWYQQKPGKAPKLLIYSASSLYSGVPSRFSGSRSGTDFTLTISSLQPEDFATYYCQQSVYSPVTFGQGTKVEIKR
notes: Fab; also called wild type A8
